Literature values, collected in US9504757B2, “Site-specific GLP-2 conjugate using an immunoglobulin fragment” (HANMI SCIENCE CO., LTD., priority 2011, dated 2016).

Conditions: inactivation by DPP IV; Bolette H. et al. 2000

In the case of “HADGSFSDEMNTILDNLAARDFINWLIQTKITD [GLP-2]”, the in vivo half-life is given as ≤ 7 min.
